Data from article PMC8591539 (The EMBO Journal, 2021).

Biological target: RBX1 (human, UniProt P62877 1-108)
Test: cryo-EM structure

- binding result: binds
B1: DDB1- and CUL4-associated factor 1 (DCAF1), full length, wild type (natural protein)
chain: not shown
